Consider seven molecules from paper PMC13376610, “Nanobody-mediated control of long RSH Rel and RelA catalysis by restriction of their conformational landscape” (Nature Communications, 2026).

Numbering of substitutions follows the chain as printed. Like-named read-outs stand apart in the source and are kept apart here.

Assay [1] has as its target T1, RelCt^NTD (Chlorobaculum tepidum, UniProt Q8KC80).
T1 construct: gene relA; N-terminal catalytic region (HD + SYNTH domains), C-terminal regulatory domains removed; N-terminal His-TEV tag cleaved; recombinant, gene from GenScript
T1 sequence (Q8KC80 1-390 limits assumed): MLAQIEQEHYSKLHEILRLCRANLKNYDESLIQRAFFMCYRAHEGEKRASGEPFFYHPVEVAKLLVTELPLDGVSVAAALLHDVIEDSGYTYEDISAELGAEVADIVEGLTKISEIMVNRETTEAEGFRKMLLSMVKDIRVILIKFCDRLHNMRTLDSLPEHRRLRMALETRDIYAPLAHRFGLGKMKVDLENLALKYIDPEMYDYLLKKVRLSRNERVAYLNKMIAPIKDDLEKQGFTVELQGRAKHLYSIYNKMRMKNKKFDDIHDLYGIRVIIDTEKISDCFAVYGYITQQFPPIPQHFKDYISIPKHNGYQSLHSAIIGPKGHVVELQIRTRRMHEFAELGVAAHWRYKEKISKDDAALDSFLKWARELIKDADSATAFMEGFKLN
The assay is described as follows: ITC. The class given is binding. To be noted: 15 °C, pH 7.5, 10 mM MgCl2, no nanobody; SYNTH active site; non-hydrolysable ATP analogue; also crystal structure with GDP (2.65 Å).

Assay [2] has as its target T2, full-length E. coli RelA (Escherichia coli (K-12 entry), UniProt P0AG20).
T2 construct: RelA, long RSH (p)ppGpp synthetase, Escherichia coli, full length; also called RelAEc; source: construct generated by GenScript
The assay is described as follows: ITC; nanobody titrated into the RSH enzyme in the cell; Affinity-ITC, 15 °C, 2 μL injections, stirring 75 r.p.m., triplicate; mean KD ± SD. To be noted: both partners purified.

Assay [3] concerns the target T3, RelCt^NTD, N-terminal catalytic region of C. tepidum Rel (Chlorobaculum tepidum).
T3 chain: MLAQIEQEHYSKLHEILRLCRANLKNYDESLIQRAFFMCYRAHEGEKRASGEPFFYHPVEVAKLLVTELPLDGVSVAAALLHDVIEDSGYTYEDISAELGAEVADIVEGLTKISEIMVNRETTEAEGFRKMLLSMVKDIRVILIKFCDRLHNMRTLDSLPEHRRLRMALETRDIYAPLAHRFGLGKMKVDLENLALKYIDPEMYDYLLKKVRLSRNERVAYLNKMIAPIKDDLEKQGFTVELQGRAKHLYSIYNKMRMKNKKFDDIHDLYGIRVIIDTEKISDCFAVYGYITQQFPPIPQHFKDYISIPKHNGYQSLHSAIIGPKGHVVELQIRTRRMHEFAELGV
Description: ITC.

Assay [4] deals with T4, full-length Rel from Chlorobaculum tepidum (Chlorobaculum tepidum TLS, UniProt Q8KC80).
T4 construct: Rel, bifunctional (p)ppGpp synthetase/hydrolase (long RSH), Chlorobaculum tepidum, full length; PDB 9S6K and 9S6L hold the NTD of this protein; also called RelCt; RelACt (as printed once); source: construct generated by GenScript
Description: ITC; nanobody titrated into the RSH enzyme in the cell; Affinity-ITC, 15 °C, 2 μL injections, stirring 75 r.p.m., triplicate; mean KD ± SD. The following applies: both partners purified. For orientation: Isothermal titration calorimetry measures the heat released or taken up as one component is titrated into another.

Assay [5] deals with T4, full-length Rel from Chlorobaculum …. Description: cell-based or functional assay.
The target in assay [6] is T5, RelCt^D283A (Chlorobaculum tepidum).
T5 chain: T3 chain with D283A
Description: ITC.

Assay [7] concerns the target T6, RelCt^K280A (Chlorobaculum tepidum).
T6 chain: T3 chain with K280A
Description: ITC.

Assay [8] addresses T7, RelCt^Y290A (Chlorobaculum tepidum).
T7 chain: T3 chain with Y290A
Description: ITC.

The target of assay [9] is T8, RelCt^A286K (Chlorobaculum tepidum).
T8 chain: T3 chain with A286K
Description: ITC.

Assay [10] concerns the target T5, RelCt^D283A. Description: ITC.
Assay [11] addresses RelCt^R215E (Chlorobaculum tepidum). Description: ITC; nanobody titrated into the RSH enzyme in the cell; Affinity-ITC, 15 °C, 2 μL injections, stirring 75 r.p.m., triplicate; mean KD ± SD.
The target in assay [12] is T9, RelCt^NTD, N-terminal catalytic region of C. tepidum Rel (Chlorobaculum tepidum TLS).
T9 construct: Rel, Chlorobaculum tepidum, N-terminal catalytic region (HD and SYNTH domains); His-TEV tag removed with TEV protease; source: recombinant, purified (HisTrap, SEC, TEV cleavage, reverse IMAC, SEC); construct generated by GenScript; not shown: His tag, N-terminal, cleaved
T9 chain: T3 chain
Description: HDX-MS; RelCt^NTD alone against its complex with the nanobody, 50 to 70 μM; labelling 0.5, 5 or 60 min at 20 °C in 50 mM HEPES, 500 mM KCl, 500 mM NaCl, 2 mM MgCl2, 1 mM TCEP, 0.002% mellitic acid (pD 7.5); triplicate. To be noted: both partners purified.

T2 sequence (P0AG20 whole entry): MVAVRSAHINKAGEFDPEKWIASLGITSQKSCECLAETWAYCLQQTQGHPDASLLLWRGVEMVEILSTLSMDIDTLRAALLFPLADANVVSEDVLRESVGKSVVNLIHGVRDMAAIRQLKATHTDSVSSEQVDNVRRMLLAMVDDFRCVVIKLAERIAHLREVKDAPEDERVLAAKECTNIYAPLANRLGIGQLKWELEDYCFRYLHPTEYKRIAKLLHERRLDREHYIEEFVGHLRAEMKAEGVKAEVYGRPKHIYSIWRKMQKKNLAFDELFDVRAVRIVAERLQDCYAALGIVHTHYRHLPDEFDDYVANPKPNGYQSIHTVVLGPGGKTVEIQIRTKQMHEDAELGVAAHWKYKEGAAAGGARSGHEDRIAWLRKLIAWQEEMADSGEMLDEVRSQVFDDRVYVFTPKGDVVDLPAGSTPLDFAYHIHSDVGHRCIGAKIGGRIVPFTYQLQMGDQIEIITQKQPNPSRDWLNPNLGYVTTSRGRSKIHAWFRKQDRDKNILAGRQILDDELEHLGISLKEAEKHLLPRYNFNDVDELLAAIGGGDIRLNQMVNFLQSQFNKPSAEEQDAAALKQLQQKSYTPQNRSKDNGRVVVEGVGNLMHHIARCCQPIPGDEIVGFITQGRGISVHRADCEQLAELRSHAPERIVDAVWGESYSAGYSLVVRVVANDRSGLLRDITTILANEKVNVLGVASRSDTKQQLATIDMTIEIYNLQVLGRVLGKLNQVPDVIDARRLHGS

The molecule `Nc1ncnc2c1ncn2[C@@H]1O[C@H](COP(=O)(O)CP(=O)(O)OP(=O)(O)O)[C@@H](O)[C@H]1O` [APCPP] showed a dissociation constant (Kd) in assay [1] of 37900 nM.

B1: Nb94 (VHH)
VHH: QVQLVESGGGMVQPGGSLRLSCAASGFTFSTYSMGWFRQAPGQEREFVAAISWSGDSAYYADSVKGRFTISRDNAKNTVYLQMNSLKFEDTAVYYCNADLDGLGYDYWGQGTQVTVS
notes: llama nanobody selected against E. coli RelA; Expressed from the pMESy4 plasmid; also called nanobody 94; source: E. coli WK6, periplasmic extraction, purified (Ni-NTA IMAC, SEC)
Turning to B1, in assay [2], binding was characterised by a dissociation constant (Kd) of 13 nM.

B2: Nb96 (VHH)
VHH: QVQLQESGGGLVQAGGSLRLSCAASGSIFDIKVMAWYRQAPGKSRELVAVHASADDSTTYEKSVKGRFTISRDNAKNTVYLQMNSLKPEDTAIYYCNRIPNFTHWGQGTQVTVS
notes: llama nanobody selected against E. coli RelA; Expressed from the pMESy4 plasmid; also called nanobody 96; source: E. coli WK6, periplasmic extraction, purified (Ni-NTA IMAC, SEC)
Regarding B2, the Kd in [2] was 80 nM.

B3: Nb120 (VHH)
VHH: QVQLVESGGGLVQPGGSLRLSCAASGTIRSLNAMAWYRQAPGKERELAARISSGGTTTYADSVKGRFTISRDNAKNTLYLQMNSLKPEDTAVYYCKANRFSTYGYRDDIWGQGTQVTVS
notes: control nanobody selected against a different target; also called control Nb120; source: E. coli WK6, periplasmic extraction, purified (Ni-NTA IMAC, SEC)
Regarding B3, the binding result in assay [2] is on record as “no binding”.

B4: Nb898 (VHH)
VHH: QVQLQESGGGLVQAGGSLRLSCAASGSIESINAMAWYRQAPGKPRELVAVIAKSDGSTTYAVPVKGRFTISRDDAKNTVYLQMNSLKPEDTAIYYCNKIPNFTYWGQGTQVTVSS
notes: llama nanobody selected against C. tepidum Rel; Expressed from the pMESy4 plasmid; source: E. coli WK6, periplasmic extraction, purified (Ni-NTA IMAC, SEC)
B4: the Kd in assay [3] was 190 nM; in assay [4] it was 186 nM. Also, the “SYNTH activity (turnover of ppGpp synthesis) of RelCt in the presence of Nb898, HPLC” value in [5] was around 11 fold.

B5: Nb898 (VHH)
VHH: B4 VHH
modifications: form not printed for this variant; NTD taken because the methods purify 'RelCtNTD and variants' (full length possible); limits from 9S6K entity
On to B5, for which the Kd amounted to 200 nM in assay [6]; 2200 nM in assay [7]; 1100 nM in assay [8]; 12000 nM in assay [9]; 201 nM in assay [10].

B6: Nb585 (VHH)
VHH: QVQLQESGGGLVQAGGSLRLSCAASGFTFEDYTIGWFRQAPGKEREGVSLISNSDGFTSYADSVKGQFTISSENAKNTVYLQMDNLKPEDTAVYYCAATEVLAHLMWRPSNWGYWGQGTQVTV
notes: llama nanobody selected against C. tepidum Rel; Expressed from the pMESy4 plasmid; also called nanobody 585; source: E. coli WK6, periplasmic extraction, purified (Ni-NTA IMAC, SEC)
B6: the Kd in assay [4] is 21 nM. In addition, in [5], the “HD (ppGpp hydrolase) activity of RelCt in the presence of Nb585, HPLC” value came to 2 fold. In addition, in assay [11], the fold drop in affinity against unsubstituted RelCt was 28 fold. Moreover, in [12], the binding result was “binds”.

The Kd is the equilibrium constant for the complex coming apart.
